In test [1] the target is recombinant full-length murine VDAC1 (murine) (UniProt Q60932).
Test [2] has the same target. The source holds these as a separate data set.

Chain of recombinant full-length murine VDAC1 (murine) (Q60932 14-296): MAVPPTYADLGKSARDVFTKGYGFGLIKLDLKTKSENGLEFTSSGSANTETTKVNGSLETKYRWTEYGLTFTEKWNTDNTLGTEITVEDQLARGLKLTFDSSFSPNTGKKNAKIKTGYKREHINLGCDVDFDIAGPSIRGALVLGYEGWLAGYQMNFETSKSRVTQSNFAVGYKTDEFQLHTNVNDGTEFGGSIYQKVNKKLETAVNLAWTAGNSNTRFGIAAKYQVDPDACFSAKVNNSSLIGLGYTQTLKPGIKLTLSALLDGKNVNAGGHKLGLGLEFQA

In the case of human mutant SOD1^G93A (enzyme), in test [1], the inhibition of channel conductance of bilayer-reconstituted VDAC1 amounted to 57%. Besides, the survival of mESC-derived SOD1^G93A-expressing motor neurons with the (1-20)-N-Ter-Antp peptide, 10 μM, 96 h in test [2] amounted to 2 fold. On to human mutant SOD1^G85R (enzyme), for which, in test [1], the inhibition of channel conductance of bilayer-reconstituted VDAC1 came out at 40%.

The values are drawn from publication PMC6702328, “A VDAC1-Derived N-Terminal Peptide Inhibits Mutant SOD1-VDAC1 Interactions and Toxicity in the SOD1 Model of ALS” (Frontiers in Cellular Neuroscience, 2019).
